Measured values published in patent US5494895A, “Scorpion peptide margatoxin with immunosuppressant activity” (Merck & Co., Inc., priority 1993, dated 1996).
Ends that are not written are not given here.

What was measured:
[1] = target: T1, Kv 1.6 (Rattus norvegicus, UniProt P17659); conditions: rat clone; cited from earlier work
T1 construct: expressed in transfected cells; host or cells: Xenopus oocytes injected with RNA transcribed in vitro from the cDNA clone

[2] = target: T2, Kv 1.3 (Rattus norvegicus, UniProt P15384); assay: [125I]ChTX binding to rat brain synaptic plasma membrane vesicles
T2 construct: from tissue; host or cells: rat brain synaptic plasma membrane vesicles
T2 sequence (P15384 whole entry): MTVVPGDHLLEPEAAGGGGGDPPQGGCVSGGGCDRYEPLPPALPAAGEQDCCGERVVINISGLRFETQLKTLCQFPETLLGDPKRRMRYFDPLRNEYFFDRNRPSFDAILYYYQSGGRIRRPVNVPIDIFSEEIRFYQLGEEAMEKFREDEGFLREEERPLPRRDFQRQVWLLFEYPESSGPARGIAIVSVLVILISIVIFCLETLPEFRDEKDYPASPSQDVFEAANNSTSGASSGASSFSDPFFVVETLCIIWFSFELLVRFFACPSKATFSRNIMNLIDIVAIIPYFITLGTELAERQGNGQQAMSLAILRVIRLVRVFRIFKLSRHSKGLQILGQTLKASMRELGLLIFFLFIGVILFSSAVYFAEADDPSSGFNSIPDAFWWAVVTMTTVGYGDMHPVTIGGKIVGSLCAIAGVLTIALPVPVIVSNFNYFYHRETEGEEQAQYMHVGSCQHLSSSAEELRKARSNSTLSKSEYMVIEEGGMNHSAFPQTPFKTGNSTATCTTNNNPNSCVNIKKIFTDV
Method: (§1) The potency of MgTX as an inhibitor of [^125 I]ChTX binding to Kv 1.3 was evaluated. The binding of [^125 I]ChTX to either rat brain synaptic plasma membrane vesicles (Kv 1.3 channel; Vazquez et al., J. Biol. Chem. 265, 15564, 1990) or bovine aortic smooth muscle sarcolemmal membranes (Maxi-K channel; Vazquez et al., J. Biol. Chem. 264, 20402, 1989) was determined as described. Briefly, membrane vesicles were incubated with [^125 I]ChTX in the presence or absence of other added agents, until equilibrium was achieved. Separation of bound from free ligand was accomplished by filtration through GF/C glass fiber filters (WHATMAN) that had been presoaked in 0.5% polyethyleneimine. Nonspecific binding was determined in the presence of 10 nM unlabeled ChTX. Data from saturation experiments were analyzed in a Scatchard representation to determine Kd and Bmax values. Triplicate samples were obtained for each experimental point and the data were averaged. The standard deviation of the mean was typically less than 2%. […] As an indication of selectivity, MgTX had no effect on [^125 I]ChTX binding to the Maxi-K channel in smooth muscle membranes at concentrations up to 10 nM.

[3] = target: T3, Maxi-K channel (Bos taurus, UniProt Q28204); assay: [125I]ChTX binding to bovine aortic smooth muscle sarcolemmal membranes
T3 construct: from tissue; host or cells: bovine aortic smooth muscle sarcolemmal membranes
T3 sequence (Q28204 whole entry): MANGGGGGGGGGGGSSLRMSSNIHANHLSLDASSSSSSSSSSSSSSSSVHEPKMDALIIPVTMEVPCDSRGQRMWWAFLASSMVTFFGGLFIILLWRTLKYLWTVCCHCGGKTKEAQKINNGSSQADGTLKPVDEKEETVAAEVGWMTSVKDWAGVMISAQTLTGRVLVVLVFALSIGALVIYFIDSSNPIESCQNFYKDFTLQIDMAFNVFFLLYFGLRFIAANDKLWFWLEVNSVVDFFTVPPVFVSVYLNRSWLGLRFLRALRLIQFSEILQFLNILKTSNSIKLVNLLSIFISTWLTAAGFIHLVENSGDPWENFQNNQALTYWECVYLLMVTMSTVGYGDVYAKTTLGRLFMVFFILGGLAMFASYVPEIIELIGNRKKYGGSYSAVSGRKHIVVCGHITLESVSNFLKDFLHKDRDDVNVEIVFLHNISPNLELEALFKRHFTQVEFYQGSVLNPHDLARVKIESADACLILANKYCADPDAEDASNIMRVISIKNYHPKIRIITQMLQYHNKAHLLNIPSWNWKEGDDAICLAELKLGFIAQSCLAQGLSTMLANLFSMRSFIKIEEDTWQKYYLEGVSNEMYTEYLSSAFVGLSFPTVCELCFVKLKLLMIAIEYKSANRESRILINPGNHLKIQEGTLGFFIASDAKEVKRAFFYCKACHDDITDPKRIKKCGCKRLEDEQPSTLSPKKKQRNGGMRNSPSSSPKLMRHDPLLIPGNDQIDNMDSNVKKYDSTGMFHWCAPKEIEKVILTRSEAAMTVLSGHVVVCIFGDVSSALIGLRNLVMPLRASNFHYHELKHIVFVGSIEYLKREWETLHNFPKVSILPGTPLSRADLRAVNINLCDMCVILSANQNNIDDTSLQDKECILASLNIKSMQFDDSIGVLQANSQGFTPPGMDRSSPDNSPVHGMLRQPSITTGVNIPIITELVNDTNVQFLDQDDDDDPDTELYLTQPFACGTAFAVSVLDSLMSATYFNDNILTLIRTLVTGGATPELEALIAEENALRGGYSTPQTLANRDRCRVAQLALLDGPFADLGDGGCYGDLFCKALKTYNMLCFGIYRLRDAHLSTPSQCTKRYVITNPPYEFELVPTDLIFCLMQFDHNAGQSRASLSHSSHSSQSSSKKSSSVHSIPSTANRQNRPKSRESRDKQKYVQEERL
T3 sequence (Q28067 whole entry partner): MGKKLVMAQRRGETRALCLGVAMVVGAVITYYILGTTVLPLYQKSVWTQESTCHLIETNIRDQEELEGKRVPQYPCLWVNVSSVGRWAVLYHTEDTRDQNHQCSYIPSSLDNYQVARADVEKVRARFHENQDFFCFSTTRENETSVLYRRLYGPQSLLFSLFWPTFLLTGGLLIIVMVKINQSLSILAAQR
Method: as §1

[4] = target: T4, lymphocyte Kv 1.3 current (Homo sapiens, UniProt P22001); assay: Whole cell patch clamp of human peripheral T-lymphocytes; type: cell-based; conditions: electrophysiology, Example 8
T4 construct: endogenous in cells; host or cells: purified human peripheral blood T lymphocytes
T4 sequence (P22001 whole entry): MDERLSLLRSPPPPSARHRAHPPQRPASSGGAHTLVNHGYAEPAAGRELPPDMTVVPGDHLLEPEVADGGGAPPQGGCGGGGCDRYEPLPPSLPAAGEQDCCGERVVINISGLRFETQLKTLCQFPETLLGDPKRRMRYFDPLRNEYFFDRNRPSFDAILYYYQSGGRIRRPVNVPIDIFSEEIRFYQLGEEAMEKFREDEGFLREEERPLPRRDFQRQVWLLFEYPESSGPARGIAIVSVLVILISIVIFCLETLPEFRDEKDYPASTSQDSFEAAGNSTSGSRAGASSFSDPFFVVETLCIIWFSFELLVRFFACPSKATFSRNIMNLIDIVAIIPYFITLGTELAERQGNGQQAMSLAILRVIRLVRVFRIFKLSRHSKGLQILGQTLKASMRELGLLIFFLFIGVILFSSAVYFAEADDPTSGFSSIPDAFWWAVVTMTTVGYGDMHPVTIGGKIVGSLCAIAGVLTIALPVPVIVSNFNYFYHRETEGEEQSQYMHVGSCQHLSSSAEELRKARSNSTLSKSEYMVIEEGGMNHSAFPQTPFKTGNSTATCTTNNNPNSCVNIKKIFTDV
Method: Ionic currents were recorded from human peripheral T-lymphocytes using the whole cell patch clamp technique described in Cahalan, M. and Neher, E., Meth. Enzymol. 207, 3, 1992. Purified human T cells were obtained as described in Leonard et al., Proc. Natl. Acad. Sci. U.S.A., 89, 10094, 1992, and recordings were carried out in a bath solution consisting of ^125 mM NaCl, 2.5 mM KCl, 1.0 mM CaCl2, 2.0 mM MgCl2, 10 mM HEPES (potassium salt), 10 mM glucose, 5 mM Na-pyruvate, and 0.05% BSA. The pH was adjusted to 7.2, and experiments were performed at room temperature (19°-22° C.). The intracellular (pipette) solution contained 140 mM K-glutamate, 1 mM MgCl2, 10 mM HEPES (potassium salt), and 0.1 mM EGTA. The pH was adjusted to 7.2. Patch pipettes were fabricated from DAGAN (Minneapolis, Minn.) LG-16 glass and had resistances of 2 to 8M.OMEGA.. Currents were measured using a DAGAN model 3900 patch clamp. Delivery of command voltages, data acquisition, and post-acquisition analysis were aided by a microcomputer running the Pclamp program suite (AXON INSTRUMENTS, Foster City, Calif.).
Methods for oocyte isolation and micro-injection were previously described in Goldin, Meth. Cell Biol, 36, 487, 1991, and Swanson and Folander, Meth. Enzymol., 207, 310, 1992. Currents expressed in oocytes were measured using a DAGAN model CA-1 two-electrode voltage clamp. Delivery of command voltages, data acquisition and post-acquisition analysis were aided by a microcomputer running the Pclamp program suite. The oocyte bathing solution consisted of 96 mM NaCl, 2.5 mM KCl, 1 mM MgCl2, 1.8 mM CaCl2, 10 mM HEPES, and 0.05% BSA. The pH was 7.2. All recordings were obtained at room temperature (19°-22° C.). The intracellular microelectrodes were fabricated from DAGAN LE-16 glass in a two-stage pull to a final resistance of 0.6 to 2M.OMEGA. and filled with 3M KCl. For both lymphocyte and oocyte experiments, peptides were diluted into the extracellular solution from 20 μM aqueous stock containing 100 mM NaCl. The presence of 0.05% BSA in the bath solution inhibited non-specific loss of dilute peptide toxins in the perfusion tubing.
Both native and recombinant MgTX were tested for their ability to block voltage gated K^+ channels. […] There was insufficient native toxin to carry out selectivity studies, so those were conducted using the recombinant material exclusively. […] The apparent IC50 for inhibition of the lymphocyte Kv 1.3 current is between 20 to 100 pM. […] As reported previously, MgTX has no effect on three different ChTX-sensitive, Ca^2+ -activated K^+ channels of lymphocytes, even at 100 nM (Leonard et al., Proc. Natl. Acad. Sci. U.S.A. 89, 10094, 1992).

T1 sequence (P17659 whole entry): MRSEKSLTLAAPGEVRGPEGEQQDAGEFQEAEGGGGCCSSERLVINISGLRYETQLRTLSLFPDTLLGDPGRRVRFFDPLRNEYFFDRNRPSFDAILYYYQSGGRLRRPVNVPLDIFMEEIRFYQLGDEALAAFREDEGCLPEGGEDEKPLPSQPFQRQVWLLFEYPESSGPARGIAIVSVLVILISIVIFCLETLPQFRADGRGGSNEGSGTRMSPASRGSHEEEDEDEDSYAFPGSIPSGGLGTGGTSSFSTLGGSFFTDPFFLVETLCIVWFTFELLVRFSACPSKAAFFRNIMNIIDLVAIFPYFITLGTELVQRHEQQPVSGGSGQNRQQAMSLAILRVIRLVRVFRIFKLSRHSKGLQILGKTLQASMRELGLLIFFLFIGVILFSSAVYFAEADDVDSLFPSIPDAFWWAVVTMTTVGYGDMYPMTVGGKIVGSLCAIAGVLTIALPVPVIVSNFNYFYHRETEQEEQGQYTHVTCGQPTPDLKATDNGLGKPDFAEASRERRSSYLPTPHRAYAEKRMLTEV

| Substance | IC50 [1] | potency for inhibition of [125I]ChTX binding to brain membranes compared with native MgTX [2] | effect on ChTX binding to the Maxi-K channel [3] | potency and selectivity as an inhibitor of Kv 1.3 compared with native peptide [4] | potency and selectivity as an inhibitor of Kv 1.3 compared with native peptide ([4]; listed as recombinant MgTX) |
| --- | --- | --- | --- | --- | --- |
| charybdotoxin [ChTX] | > 1000 nM | – | – | – | – |
| rMgTX: recombinant MgTX expressed in E. coli as T7 gene 9 fusion protein, cleaved with factor Xa; identical to native peptide (TIINVKCTSPKQCLPPCKAQFGQSAGAKCMNGKCKCYPH; ends and bridges not checked; cysteine pairing not given here; UniProt P40755 1-39, looked up) | – | same potency as native MgTX | did not affect | same potency and selectivity | identical results |
